The test concerns the target synthetic peptide …[pT]ISDSAPSR (human). Kind of test: bead array incubated with the synthetic peptide in digested BSA; bound peptide by MS, peptide left in the sample by dot blot.

Sequence of synthetic peptide …[pT]ISDSAPSR (human) (peptide, as listed by the source): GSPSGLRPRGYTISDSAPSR

With “Rabbit monoclonal antibody recognizing phosphorylated Thr1462 in human Tuberin (TSC2), Cell Signaling Technology catalog number 3617 (5B12)”, the binding capacity of a bead array of 5 identical reactive sites, each with 5% of the #3617 antibody was < 15 % of 1 pmol.

The values above are taken from patent US20210018513A1.
